Target: Hfq (Pseudomonas aeruginosa (PAO1?)) (UniProt Q9HUM0)
Assay: EMSA
Conditions: biotinylated UTP 1:3 to unlabeled UTP; 50 mM Tris-HCl pH 7.5, 250 mM NaCl, 250 mM KCl (Hfq annealing buffer); RNA renatured 80 C 1 min; room temperature 20 min; 7.5% TGX native gel

Hfq (Pseudomonas aeruginosa (PAO1?)), sequence (Q9HUM0 whole entry): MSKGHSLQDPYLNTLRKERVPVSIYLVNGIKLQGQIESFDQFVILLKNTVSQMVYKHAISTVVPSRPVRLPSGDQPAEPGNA

Work on “AACUGGUCGCGAGAUCAGCCGGUAAGCUGAGAGACCCACGCAGUCGGACUCUUCAGAUUAUCUCCUCAUCAGGCUAAUCACGGUUUUUGACCCGGCACUUUGCCGGGUCUUUUUUUGCCUGCGAUUCGGCCGGAGACGACCGUUCAUCGGCUGGCGAUGGAAUGAAUGAGAACCGGCUUGACCUGAUAAUGAGAAUAGUUAUUAUUACACCAACUGGUCGCGAGGCCAGCAGGUAAGCUGAGAGACCAAGCAGUCGGACUCUUCAGAUUAUCUCCUCAUCAGGCUAAUCACGGUUUCGACCCGGCACUUUGCCGGGUCUUUUUUU [PrrH sRNA]” yielded a binding of 11 ng/µL.

— paper PMC4263517
